The values below come from patent publication US20180044435A1 (GENEFRONTIER, published 2018).

The target of assay [1] is fusion protein of MBP with region 524-562 of human membrane-anchored form ADAM28 (SEQ ID NO: 2) at its … (human). Nature of the assay: Western blotting. On the procedure: The reactivity of anti-human membrane-anchored form ADAM28 antibody 2B6D10 with the above-mentioned fusion proteins was evaluated by Western blotting.
(Immunoblotting shows a protein as a band on a membrane.)

The target of assay [2] is T1, MBP-mouse ADAM28m 527-622 (mouse, UniProt Q9JLN6 527-622).
T1 sequence: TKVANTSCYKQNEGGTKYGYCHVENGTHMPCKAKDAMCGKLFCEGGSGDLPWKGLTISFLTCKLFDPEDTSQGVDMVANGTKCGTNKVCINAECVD
The assay can be described thus: SPR, BIAcore 3000, fusion protein amine-coupled on CM5 chip, antibody injected. The protocol: (§1) A fusion protein in which a 524-659 region of human membrane-anchored form ADAM28 (SEQ ID NO: 2) is added to C-terminal of MBP (MBP-human ADAM28m 524-659) and a fusion protein in which a 527-622 region of mouse membrane-anchored form ADAM28 (SEQ ID NO: 26) is added to C-terminal of MBP (MBP-mouse ADAM28m 527-622) were each immobilized on CM5 sensor chip (GE Healthcare Life Sciences, Buckinghamshire, UK) by amine-coupling and 2B6D10 antibody was injected to a flow cell by using BIAcore 3000 (GE Healthcare Life Sciences). The KD value was calculated from the measured Ka and Kd values.
(In general: Surface plasmon resonance follows binding to a sensor surface in real time, without labels.)

Assay [3] addresses T2, MBP-human ADAM28m 524-659 (human, UniProt Q9UKQ2 524-659).
T2 construct: also called the immunogen
T2 sequence: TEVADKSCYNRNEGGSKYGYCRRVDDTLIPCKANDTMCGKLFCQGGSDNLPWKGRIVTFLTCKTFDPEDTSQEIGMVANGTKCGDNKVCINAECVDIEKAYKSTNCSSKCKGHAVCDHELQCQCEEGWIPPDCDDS
Described as above. The protocol: as §1

Assay [4] deals with T3, mouse membrane-anchored form ADAM28 (mouse, UniProt Q9JLN6 196-774).
T3 construct: Expressed on transfected CHO-K1 cells; also called mouse ADAM28m; mouse ADAM28
T3 chain: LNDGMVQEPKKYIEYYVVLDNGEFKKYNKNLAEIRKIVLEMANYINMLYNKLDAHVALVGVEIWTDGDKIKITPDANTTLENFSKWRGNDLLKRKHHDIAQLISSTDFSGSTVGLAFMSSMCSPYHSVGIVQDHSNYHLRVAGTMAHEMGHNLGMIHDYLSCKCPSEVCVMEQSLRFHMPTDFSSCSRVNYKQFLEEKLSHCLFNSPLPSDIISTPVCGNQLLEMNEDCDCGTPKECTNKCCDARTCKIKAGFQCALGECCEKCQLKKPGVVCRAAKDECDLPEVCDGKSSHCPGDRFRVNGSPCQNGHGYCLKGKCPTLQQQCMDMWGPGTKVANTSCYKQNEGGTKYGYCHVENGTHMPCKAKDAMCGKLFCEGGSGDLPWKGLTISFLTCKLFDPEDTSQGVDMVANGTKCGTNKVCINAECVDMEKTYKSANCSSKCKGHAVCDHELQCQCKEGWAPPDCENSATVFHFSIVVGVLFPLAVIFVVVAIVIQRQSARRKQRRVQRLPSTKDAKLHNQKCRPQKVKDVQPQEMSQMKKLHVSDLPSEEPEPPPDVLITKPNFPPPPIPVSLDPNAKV
The assay can be described thus: immunofluorescence staining of transfected CHO-K1 cells, 5 µg/ml antibody. The protocol: CHO-K1 cells co-transfected with mouse membrane-anchored form ADAM28 and EGFP were treated with 2B6D10 antibody (5 μg/ml) at 4° C. for 1.5 hr. The cells were washed and treated with anti-mouse IgG-Alexa555 (1:300) at 4° C. for 1 hr. The cells were washed, fixed and observed. The results are shown in, FIG. 3.

B1: anti-human membrane-anchored form ADAM28 antibody 2B6D10 (antibody, V domains shown)
VH: QVQLQQSGAELARPGASVKLSCKASGYTFTSYGISWVKQRTGQGLEWIGEIYPRSGNTYYNEKFKGKATLTADKSSSTAYMELRRLTSEDSAVFFCARENVYSSNYGFAFWGQGTLVTVSA
VL: DVLMTQTPLSLPVSLGDQASISCRSSQNIIHSDGNTYLEWYLQKPGQSPKFLIYKVSNRFSGVPDRFSGSGSGTDFTLKISRVEAEDLGVYYCLQGSHVPWTFGGGTKLEIKR
notes: Mouse monoclonal antibody from a hybridoma, detected with anti-mouse IgG; also called 2B6D10 antibody; clone 2B6D10
For the molecule B1, the binding result in assay [1] and in assay [4] was “binds” each time. The Kd in assay [2] amounted to 0.236 nM; in assay [3], 0.0935 nM.

Broadly, the Kd is the constant that tells how readily two partners part at equilibrium.
